# Measured values: patent publication US20230340160A1 (published 2023)
# B1: “2+1 IgG scFab, LALA” (anti-MCSP/anti-huCD3) (bispecific antibody)
# heavy 1: not shown
# heavy 2: EVQLQESGPGLVKPSQSLSLTCSVTGYSITSGYYWNWIRQFPGNKLEWMGYITYDGSNNYNPSLKNRISITRDTSKNQFFLKLNSVTTEDTATYYCADFDYWGQGTTLTVSSASTKGPSVFPLAPSSKSTSGGTAALGCLVKDYFPEPVTVSWNSGALTSGVHTFPAVLQSSGLYSLSSVVTVPSSSLGTQTYICNVNHKPSNTKVDKKVEPKSCDKTHTCPPCPAPEAAGGPSVFLFPPKPKDTLMISRTPEVTCVVVDVSHEDPEVKFNWYVDGVEVHNAKTKPREEQYNSTYRVVSVLTVLHQDWLNGKEYKCKVSNKALPAPIEKTISKAKGQPREPQVCTLPPSRDELTKNQVSLSCAVKGFYPSDIAVEWESNGQPENNYKTTPPVLDSDGSFFLVSKLTVDKSRWQQGNVFSCSVMHEALHNHYTQKSLSLSPGK
# light: DIVLTQSPSSLSASLGDRVTISCSASQGIRNYLNWYQQRPDGTVKLLIYYTSSLHSGVPSRFSGSGSGTDYSLTISNLEPEDIATYYCQQYSKLPWTFGGGTKLEIKRTVAAPSVFIFPPSDEQLKSGTASVVCLLNNFYPREAKVQWKVDNALQSGNSQESVTEQDSKDSTYSLSSTLTLSKADYEKHKVYACEVTHQGLSSPVTKSFNRGEC
# notes: also called Fc-LALA
# Tests used:
# human FcγRIIIa-V158 = molecular target: T1, human FcγRIIIa-V158 (human, UniProt P08637 17-208); test: SPR (Biacore T100, 25 °C); receptor captured on anti-Penta His, construct as analyte; kinetic 1:1 fit, one concentration (1000 nM)
# T1 construct: His-tagged recombinant receptor captured on anti-Penta His antibody in SPR; also called huFcγRIIIa-V158-K6H6; HuFcγRIIIa-V158-K6H6; not shown: K6H6 tag, named only by this short form
# Description: For analyzing interaction of different Fc-variants with human FcγRIIIa-V158 and murine FcγRIV direct coupling of around 6,500 resonance units (RU) of the anti-Penta His antibody (Qiagen) is performed on a CM5 chip at pH 5.0 using the standard amine coupling kit (Biacore, Freiburg/Germany). HuFcγRIIIa-V158-K6H6 and muFcγRIV-aviHis-biotin are captured for 60 s at 4 and 10 nM respectively.
# Constructs with different Fc-mutations are passed through the flow cells for 120 s at a concentration of 1000 nM with a flow rate of 30 µl/min. The dissociation is monitored for 220 s. Bulk refractive index differences are corrected for by subtracting the response obtained in a reference flow cell. Here, the Fc-variants are flown over a surface with immobilized anti-Penta His antibody but on which HBS-EP has been injected rather than HuFcγRIIIa-V158-K6H6 or muFcγRIV-aviHis-biotin. Affinity for human FcγRIIIa-V158 and murine FcγRIV was determined for wild-type Fc using a concentration range from 500 - 4000 nM.
# The steady state response was used to derive the dissociation constant KD by non-linear curve fitting of the Langmuir binding isotherm. Kinetic constants were derived using the Biacore T100 Evaluation Software (vAA, Biacore AB, Uppsala/Sweden), to fit rate equations for 1:1 Langmuir binding by numerical integration.
# [1] = molecular target: T2, human MCSP expressed on tumor cells (human, UniProt Q6UVK1 30-2322); test: flow cytometry on Colo-38 cells, 50 nM
# T2 construct: whole, on cells; On Colo-38, WM266-4, MV-3 or MDA-MB-435 cells, as named in each row; also called huMCSP; Melanoma-associated Chondroitin Sulfate Proteoglycan
# Description: (§1) Binding of the different bispecific constructs to CD3 on Jurkat cells (ATCC #TIB-152), and the respective tumor antigen on target cells, was determined by FACS. Briefly, cells were harvested, counted and checked for viability. 0.15 - 0.2 million cells per well (in PBS containing 0.1% BSA; 90 µl) were plated in a round-bottom 96-well plate and incubated with the indicated concentration of the bispecific constructs and corresponding IgG controls (10 µl) for 30 min at 4° C. For a better comparison, all constructs and IgG controls were normalized to same molarity. After the incubation, cells were centrifuged (5 min, 350 × g), washed with 150 µl PBS containing 0.1% BSA, resuspended and incubated for further 30 min at 4° C. with 12 µl/well of a FITC-or PE-conjugated secondary antibody. Bound constructs were detected using a FACSCantoII (Software FACS Diva). The “(scFv)₂” molecule was detected using a FITC-conjugated anti-His antibody (Lucerna, #RHIS-45F-Z). For all other molecules, a FITC- or PE-conjugated AffiniPure F(ab′)2 Fragment goat anti-human IgG Fcγ Fragment Specific (Jackson Immuno Research Lab # 109-096-098 / working solution 1:20, or #109-116-170 / working solution 1:80, respectively) was used. Cells were washed by addition of 120 µl/well PBS containing 0.1% BSA and centrifugation at 350 × g for 5 min. A second washing step was performed with 150 µl/well PBS containing 0.1% BSA. Unless otherwise indicated, cells were fixed with 100 µl/well fixation buffer (BD #554655) for 15 min at 4° C. in the dark, centrifuged for 6 min at 400 × g and kept in 200 µl/well PBS containing 0.1% BSA until the samples were measured with FACS CantoII. EC50 values were calculated using the GraphPad Prism software.
# (§2) In a first experiment, different bispecific constructs targeting human MCSP and human CD3 were analyzed by flow cytometry for binding to human CD3 expressed on Jurkat, human T cell leukaemia cells, or to human MCSP on Colo-38 human melanoma cells.
# [2] = molecular target: T3, human CD3 expressed on Jurkat cells (human, UniProt P07766 23-207); test: flow cytometry on Jurkat cells, 50 nM
# T3 construct: CD3 complex on Jurkat cells (ATCC TIB-152); also called huCD3
# Description: as §1, §2
# T3 sequence (P07766 23-207 limits assumed): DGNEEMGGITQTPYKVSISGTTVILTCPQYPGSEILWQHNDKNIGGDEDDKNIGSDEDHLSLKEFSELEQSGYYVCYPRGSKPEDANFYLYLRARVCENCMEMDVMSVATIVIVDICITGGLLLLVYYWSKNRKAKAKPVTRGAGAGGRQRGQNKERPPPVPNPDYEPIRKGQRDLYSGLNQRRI
# T2 sequence (Q6UVK1 30-2322): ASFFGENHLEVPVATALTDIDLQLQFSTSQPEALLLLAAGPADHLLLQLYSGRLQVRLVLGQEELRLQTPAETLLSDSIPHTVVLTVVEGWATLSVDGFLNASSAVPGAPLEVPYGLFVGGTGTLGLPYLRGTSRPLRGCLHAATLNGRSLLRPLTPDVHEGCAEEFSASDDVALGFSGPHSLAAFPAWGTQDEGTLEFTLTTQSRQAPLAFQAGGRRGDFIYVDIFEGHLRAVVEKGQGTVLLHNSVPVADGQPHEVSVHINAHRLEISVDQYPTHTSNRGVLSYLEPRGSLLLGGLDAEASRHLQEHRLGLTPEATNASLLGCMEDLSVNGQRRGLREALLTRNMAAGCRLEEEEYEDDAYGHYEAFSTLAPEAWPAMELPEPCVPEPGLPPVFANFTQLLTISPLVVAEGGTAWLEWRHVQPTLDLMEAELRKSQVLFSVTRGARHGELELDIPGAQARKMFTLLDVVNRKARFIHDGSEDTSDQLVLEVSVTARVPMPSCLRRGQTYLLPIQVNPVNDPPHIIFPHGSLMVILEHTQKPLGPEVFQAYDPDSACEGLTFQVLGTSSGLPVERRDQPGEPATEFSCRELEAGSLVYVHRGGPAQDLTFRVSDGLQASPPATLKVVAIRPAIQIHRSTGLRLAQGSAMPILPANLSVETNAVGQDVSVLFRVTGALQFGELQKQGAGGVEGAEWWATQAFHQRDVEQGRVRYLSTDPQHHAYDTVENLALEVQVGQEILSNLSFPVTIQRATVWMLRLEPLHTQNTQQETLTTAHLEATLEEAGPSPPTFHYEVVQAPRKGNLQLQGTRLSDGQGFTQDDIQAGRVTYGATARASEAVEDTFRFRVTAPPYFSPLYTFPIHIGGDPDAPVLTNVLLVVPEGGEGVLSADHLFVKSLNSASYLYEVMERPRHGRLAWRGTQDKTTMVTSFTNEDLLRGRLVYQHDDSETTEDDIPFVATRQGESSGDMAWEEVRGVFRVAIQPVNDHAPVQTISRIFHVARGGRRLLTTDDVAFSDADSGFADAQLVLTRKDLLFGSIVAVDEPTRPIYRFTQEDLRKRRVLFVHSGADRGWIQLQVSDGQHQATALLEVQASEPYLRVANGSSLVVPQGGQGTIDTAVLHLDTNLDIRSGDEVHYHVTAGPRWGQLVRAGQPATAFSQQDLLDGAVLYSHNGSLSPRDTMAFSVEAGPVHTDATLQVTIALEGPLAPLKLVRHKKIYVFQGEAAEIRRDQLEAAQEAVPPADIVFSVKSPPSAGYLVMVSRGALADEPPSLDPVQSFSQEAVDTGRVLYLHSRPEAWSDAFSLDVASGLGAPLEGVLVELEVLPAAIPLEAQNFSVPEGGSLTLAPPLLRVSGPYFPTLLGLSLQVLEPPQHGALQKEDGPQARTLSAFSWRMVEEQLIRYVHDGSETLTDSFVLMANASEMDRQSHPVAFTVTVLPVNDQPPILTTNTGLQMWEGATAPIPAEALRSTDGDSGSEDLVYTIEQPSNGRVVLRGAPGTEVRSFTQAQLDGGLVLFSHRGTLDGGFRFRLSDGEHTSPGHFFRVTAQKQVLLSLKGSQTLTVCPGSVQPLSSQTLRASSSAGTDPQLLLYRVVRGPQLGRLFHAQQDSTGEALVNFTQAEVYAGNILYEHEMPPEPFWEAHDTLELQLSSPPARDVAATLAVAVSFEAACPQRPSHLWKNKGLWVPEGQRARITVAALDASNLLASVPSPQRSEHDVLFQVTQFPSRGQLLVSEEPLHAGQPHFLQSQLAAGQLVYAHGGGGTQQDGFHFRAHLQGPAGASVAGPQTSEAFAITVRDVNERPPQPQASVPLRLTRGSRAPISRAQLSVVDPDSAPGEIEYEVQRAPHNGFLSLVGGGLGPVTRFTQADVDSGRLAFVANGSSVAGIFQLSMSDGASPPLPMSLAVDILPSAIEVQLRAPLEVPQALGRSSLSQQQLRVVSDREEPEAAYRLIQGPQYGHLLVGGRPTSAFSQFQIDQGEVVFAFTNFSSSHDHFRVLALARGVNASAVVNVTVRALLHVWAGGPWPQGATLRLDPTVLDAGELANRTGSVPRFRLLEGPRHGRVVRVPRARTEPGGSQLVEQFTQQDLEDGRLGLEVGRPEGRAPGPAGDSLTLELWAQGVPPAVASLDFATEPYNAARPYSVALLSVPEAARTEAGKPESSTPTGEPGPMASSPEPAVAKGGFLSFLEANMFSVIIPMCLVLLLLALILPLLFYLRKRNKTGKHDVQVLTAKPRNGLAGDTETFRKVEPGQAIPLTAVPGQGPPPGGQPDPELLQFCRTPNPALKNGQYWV
# T1 sequence (P08637 17-208 F176V): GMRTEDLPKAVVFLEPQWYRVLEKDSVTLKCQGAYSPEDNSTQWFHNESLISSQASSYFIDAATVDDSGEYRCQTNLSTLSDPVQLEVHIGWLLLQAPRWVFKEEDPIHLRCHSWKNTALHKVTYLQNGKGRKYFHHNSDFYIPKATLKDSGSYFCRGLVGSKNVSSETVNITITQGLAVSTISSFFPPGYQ
binder,measurement,setting,value
B1,Kd,human FcγRIIIa-V158,2130 nM
same,binding result,[1],binds
same,binding result,[2],binds
